Measurements from patent publication US20120027677A1.

Key:
[1] = biological target: PrP^C, nonpathogenic (cellular) form of the human prion protein (in normal human brain homogenate and human plasma) (human) (UniProt P04156)
[2] = biological target: PrP^C, nonpathogenic (cellular) form of the human prion protein (in normal human brain homogenate and human plasma) (human) (UniProt P04156); remark: listed apart in the source

Substance | ave (RLU), Nomal BH [1] [RLU] | LU [2] [LU]
3F4 antibody | 14.6 | 
mAb SAF32 (antibody) |  | 888
